For this assay, the target named is T1, recombinant human ACE2 (hACE2-Fc, InvivoGen) (human, UniProt Q9BYF1 18-740).
T1 construct: not shown: Fc part of a bought reagent
The assay can be described thus: ELISA, LuS-Tag coated, hACE2-Fc titrated. Background: ELISA stands for enzyme-linked immunosorbent assay.

T1 sequence (Q9BYF1 18-740): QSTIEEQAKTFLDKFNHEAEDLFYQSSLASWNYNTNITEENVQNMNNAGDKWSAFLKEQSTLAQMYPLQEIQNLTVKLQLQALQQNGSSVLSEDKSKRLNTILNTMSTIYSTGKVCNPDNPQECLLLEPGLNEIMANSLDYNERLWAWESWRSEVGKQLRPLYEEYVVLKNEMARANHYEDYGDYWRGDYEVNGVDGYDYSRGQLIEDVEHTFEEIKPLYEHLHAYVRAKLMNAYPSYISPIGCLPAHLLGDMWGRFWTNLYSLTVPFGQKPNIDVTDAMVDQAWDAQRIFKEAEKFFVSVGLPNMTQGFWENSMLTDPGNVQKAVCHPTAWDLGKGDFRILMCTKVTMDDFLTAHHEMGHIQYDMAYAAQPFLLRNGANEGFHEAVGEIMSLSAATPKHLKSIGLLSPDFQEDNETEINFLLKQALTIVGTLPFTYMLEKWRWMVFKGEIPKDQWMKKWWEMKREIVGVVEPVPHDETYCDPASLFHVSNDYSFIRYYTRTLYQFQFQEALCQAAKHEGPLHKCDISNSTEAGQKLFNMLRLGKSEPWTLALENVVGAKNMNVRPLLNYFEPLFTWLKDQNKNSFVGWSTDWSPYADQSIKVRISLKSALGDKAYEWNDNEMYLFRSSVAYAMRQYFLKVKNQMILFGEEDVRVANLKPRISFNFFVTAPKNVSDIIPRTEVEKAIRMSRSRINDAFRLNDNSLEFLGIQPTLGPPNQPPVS

B1: Lumazine synthase expressing SpyTag (LuS-Tag) (other)
chain: AHIVMVDAYKPTKMQIYEGKLTAEGLRFGIVASRFNHALVDRLVEGAIDCIVRHGGREEDITLVRVPGSWEIPVAAGELARKENIDAVIAIGVLIRGATPHFDYIASEVSKGLANLSLELRKPITFGVITADTLEQAIERAGTKHGNKGWEAALSAIEMANLFKSLR
Regarding B1, the binding result is given as “no binding (tested: starting at 10 µg/ml)”.

Values taken from patent US20240115693A1 (CHILDREN S MEDICAL CENTER, published 2024).
